Experimental data published in patent publication US20210061908A1 (IOMX THERAPEUTICS, published 2021).

B1: human IGSF11 (VSIG3) expressed on the surface of cells (receptor)
chain: LEVSESPGSIQVARGQPAVLPCTFTTSAALINLNVIWMVTPLSNANQPEQVILYQGGQMFDGAPRFHGRVGFTGTMPATNVSIFINNTQLSDTGTYQCLVNNLPDIGGRNIGVTGLTVLVPPSAPHCQIQGSQDIGSDVILLCSSEEGIPRPTYLWEKLDNTLKLPPTATQDQVQGTVTIRNISALSSGLYQCVASNAIGTSTCLLDLQVISPQPRNIGLIAGAIGTGAVIIIFCIALILGAFFYWRSKNKEEEEEEIPNEIREDDLPPKCSSAKAFHTEISSSDNNTLTSSNAYNSRYWSNNPKVHRNTESVSHFSDLGQSFSFHSGNANIPSIYANGTHLVPGQHKTLVVTANRGSSPQVMSRSNGSVSRKPRPPHTHSYTISHATLERIGAVPVMVPAQSRAGSLV
notes: one molecule for all cell lines; the cell line is named under assay; also called IGSF11-expressing cells; HEK-OE

Assays:
[1] = molecular target: T1, extracellular domain (ECD) of human IGSF11 (VSIG3), HIS-tagged (human, UniProt Q5DX21 23-241, biotinylated in the ELISA of Example 4 (site not stated)); test: ELISA: IGSF11-HIS coated, IgG1 antibody titrated, anti-human antibody-HRP and TMB; X-axis nM and Y-axis absorbance per legend paragraph 30 [B]
T1 construct: also called HIS-IGSF11; IGSF11-HIS; not shown: HIS6 tag
T1 sequence: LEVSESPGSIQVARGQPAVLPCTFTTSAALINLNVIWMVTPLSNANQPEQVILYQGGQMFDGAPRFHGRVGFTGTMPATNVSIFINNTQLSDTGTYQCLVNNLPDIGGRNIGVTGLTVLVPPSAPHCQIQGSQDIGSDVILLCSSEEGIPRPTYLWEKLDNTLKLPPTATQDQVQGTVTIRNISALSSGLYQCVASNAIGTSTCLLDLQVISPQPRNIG

[2] = molecular target: B1; test: FACS, IgG1 format, DMS 273 cells
[3] = molecular target: T1, extracellular domain (ECD) of human …; test: blocking ELISA (Example 5): IgG titrated and pre-incubated with 200 nM his-tagged IGSF11 ECD, complexes added to immobilised VSIR-Fc, bound IGSF11 detected with anti-hexahistidine-HRP; blocked ligand: VSIR-Fc [B]
[4] = molecular target: B1; test: FACS on M579-A2-luc cells treated with IGSF11 siRNA (KD: target knocked down, specificity control)
CL-11 (C) [5] = test: FACS on CL-11 cells (do not express IGSF11; negative cell line) treated with IGSF11 siRNA (KD)
[6] = molecular target: B1; test: FACS on DMS 273 cells treated with scrambled control siRNA (SC)
[7] = molecular target: T2, IGSF11 (VSIG3), construct used in SPR and BLI not stated (UniProt Q5DX21 23-241, limits assumed); test: SPR (Biacore), chain-swapped IgG1; IGSF11 construct not stated
T2 sequence (looked up): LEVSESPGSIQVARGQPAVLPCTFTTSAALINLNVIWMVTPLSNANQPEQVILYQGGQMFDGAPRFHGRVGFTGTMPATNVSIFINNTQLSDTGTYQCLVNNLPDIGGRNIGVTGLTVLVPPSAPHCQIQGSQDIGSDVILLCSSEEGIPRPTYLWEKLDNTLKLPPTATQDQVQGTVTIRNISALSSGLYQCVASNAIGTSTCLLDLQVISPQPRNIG

[8] = molecular target: B1; test: FACS, IgG1 format, recombinant HEK cells expressing IGSF11 (HEK-OE)
CL-11 (C) [9] = test: FACS on CL-11 cells (do not express IGSF11; negative cell line) treated with scrambled control siRNA (SC)
[10] = molecular target: B1; test: FACS on DMS 273 cells treated with IGSF11 siRNA (KD: target knocked down, specificity control)
[11] = molecular target: B1; test: FACS on M579-A2-luc cells treated with scrambled control siRNA (SC)
[12] = molecular target: T1, extracellular domain (ECD) of human …; test: blocking ELISA (Example 5): IgG titrated and pre-incubated with 200 nM his-tagged IGSF11 ECD, complexes added to immobilised VSIR-Fc, bound IGSF11 detected with anti-hexahistidine-HRP; blocked ligand: VSIR-Fc
[13] = molecular target: T1, extracellular domain (ECD) of human …; test: ELISA: IGSF11-HIS coated, IgG1 antibody titrated, anti-human antibody-HRP and TMB; X-axis nM and Y-axis absorbance per legend paragraph 30
[14] = molecular target: T1, extracellular domain (ECD) of human …; test: as above; remark: listed apart in the source
[15] = molecular target: T2, IGSF11 (VSIG3), construct used in SPR …; test: BLI (Octet), IgG1 format; IGSF11 construct not stated
[16] = molecular target: T1, extracellular domain (ECD) of human …; test: blocking ELISA (Example 5): IgG titrated and pre-incubated with 200 nM his-tagged IGSF11 ECD, complexes added to immobilised VSIR-Fc, bound IGSF11 detected with anti-hexahistidine-HRP; blocked ligand: VSIR-Fc; remark: listed apart in the source
[17] = molecular target: T1, extracellular domain (ECD) of human …; test: ELISA, coated IGSF11-HIS, IgG1 format; EC50 grade (* >1 nM, ** 0.05-1 nM, *** 0.02-0.05 nM, **** <0.02 nM)
[18] = molecular target: T2, IGSF11 (VSIG3), construct used in SPR …; test: SPR (Biacore), IgG1 format; IGSF11 construct not stated
[19] = molecular target: T3, A-015 (scFv-Fc format, mouse IgG2A Fc); test: FACS on CD14-gated monocytes from PBMC of healthy donor A, 30 min at 4 C, fluorescently labelled secondary antibody
T3 construct: scFv genetically fused to mouse IgG2A Fc, expressed in HEK293; also called scFv-Fc-format of antibody A-015; anti-IGSF11 scFv-Fc (mouse IgG2A)
T3 sequence (VH, as listed by the source, chain 1 of 2): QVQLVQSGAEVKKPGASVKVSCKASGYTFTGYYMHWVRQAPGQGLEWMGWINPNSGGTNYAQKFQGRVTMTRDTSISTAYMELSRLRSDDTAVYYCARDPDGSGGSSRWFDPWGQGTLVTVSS
T3 sequence (VL, as listed by the source, chain 2 of 2): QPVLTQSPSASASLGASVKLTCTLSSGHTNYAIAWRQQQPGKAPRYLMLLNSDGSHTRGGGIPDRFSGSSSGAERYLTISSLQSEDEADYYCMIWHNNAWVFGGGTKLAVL

Binder | EC50 [2] [nM] | percentage binding [4] [%] | percentage binding (CL-11 (C) [5]) [%] | percentage binding [6] [%] | EC50 [8] [nM] | percentage binding (CL-11 (C) [9]) [%] | percentage binding [10] [%] | percentage binding [11] [%] | further results
B-002 (chain-swapped, human IgG1 format) (antibody, V domains shown, VH of A-006 with VL of A-012; IgG1 format; also called B2; Chains-B-002) VH: EVQLVESGGGLIQPGGSLRLSCAASGFTVSSNYMSWVRQAPGKGLEWVSVIYSGGSTYYADSVKGRFTISRDNSKNTLYLQMNSLRAEDTAVYYCARGNPYYYGDLQVNFDYWGQGTLVTVSS VL: QAVVTQEPSLTVSPGGTVTLTCASSTGAVTSGYYPNWFQQKPGQAPRALIYSTSNKHSWTPARFSGSLLGGKAALTLSGVQPEDEAEYYCLLYYGGAWVFGGGTKLTVL | > 50 | 2.77 | 4.54 | 80.1 | 10 to 50 | 3 | 8.68 | 70.7 | EC50 (read off the curve) [1]: ~0.01 nM; IC50 (read off the curve) [3]: ~4 nM; Kd [7]: 100 to 250 nM
B-006 (chain-swapped, human IgG1 format) (antibody, V domains shown, VH of A-006 with VL of A-005; IgG1 format; also called B6; Chains-B-006) VH: EVQLVESGGGLIQPGGSLRLSCAASGFTVSSNYMSWVRQAPGKGLEWVSVIYSGGSTYYADSVKGRFTISRDNSKNTLYLQMNSLRAEDTAVYYCARGNPYYYGDLQVNFDYWGQGTLVTVSS VL: QAVVTQEPSLTVSPGETVTLTCASSTGAVTSGYYPNWFQQRPGQAPRALIYSTSNKDSWTPARFSGSLLGGKAALTLSGVQPEDEAEYYCLLYYGGAWVFGGGTKLTVL | – | – | – | – | – | – | – | – | IC50 (read off the curve) [12]: ~5 nM; EC50 (read off the curve) [13]: ~0.02 nM
A-012 (human IgG1 format) (antibody, V domains shown, human IgG1 format) VH: EVQLLESGGGLIQPGGSLRLSCAVSGFTVSSNYMSWVRQAPGKGLEWVSVIYSGGSTYYADSVKGRFTISRDNSKNTLYLQMNSLRAEDTAVYYCARGNPYYYGDLQVNFDYWGQGTLVTVSS VL: QAVVTQEPSLTVSPGGTVTLTCASSTGAVTSGYYPNWFQQKPGQAPRALIYSTSNKHSWTPARFSGSLLGGKAALTLSGVQPEDEAEYYCLLYYGGAWVFGGGTKLTVL | 10 to 50 | 2.35 | 3.93 | 75.8 | 10 to 50 | 5.11 | 4.77 | 65.4 | EC50 (read off the curve) [14]: ~0.008 nM; Kd [15]: 1 to 10 nM; IC50 (read off the curve) [16]: ~2 nM; EC50 [17]: 0.02 to 0.05 nM; Kd [18]: 250 to 500 nM
A-006 (human IgG1 format) (antibody, V domains shown, human IgG1 format) VH: EVQLVESGGGLIQPGGSLRLSCAASGFTVSSNYMSWVRQAPGKGLEWVSVIYSGGSTYYADSVKGRFTISRDNSKNTLYLQMNSLRAEDTAVYYCARGNPYYYGDLQVNFDYWGQGTLVTVSS VL: QAVVTQEPSLTVSPGGTVTLTCASSTGAVTSGYYPNWFQQKPGQAPRPLIYSTSNKHSWTPARFSGSLLGGKAALTLSGVQPDDEAEYYCLLYYGGDWVFGGGTKLTVL | > 50 | 2.59 | 3.04 | 81.1 | 10 to 50 | 2.31 | 5.72 | 75.3 | Kd [15]: 1 to 10 nM; EC50 [17]: < 0.02 nM; Kd [18]: 250 to 500 nM
B-001 (chain-swapped, human IgG1 format) (antibody, V domains shown, VH of A-012 with VL of A-013; IgG1 format; also called B1; Chains-B-001) VH: EVQLLESGGGLIQPGGSLRLSCAVSGFTVSSNYMSWVRQAPGKGLEWVSVIYSGGSTYYADSVKGRFTISRDNSKNTLYLQMNSLRAEDTAVYYCARGNPYYYGDLQVNFDYWGQGTLVTVSS VL: QAVVTQEPSLTVSPGGTVTLTCASSTGAVTSAYYPNWFQQKPGQAPRALIYSTSNKHSWTPARFSGSLLGGKAALTLSGVQPEDEADYYCLLYYGGAWVFGGGTKLTVL | – | – | – | – | 10 to 50 | – | – | – | IC50 (read off the curve) [16]: ~2 nM; Kd [7]: 250 to 500 nM
B-004 (chain-swapped, human IgG1 format) (antibody, V domains shown, VH of A-012 with VL of A-006; IgG1 format; also called B4; Chains-B-004) VH: EVQLLESGGGLIQPGGSLRLSCAVSGFTVSSNYMSWVRQAPGKGLEWVSVIYSGGSTYYADSVKGRFTISRDNSKNTLYLQMNSLRAEDTAVYYCARGNPYYYGDLQVNFDYWGQGTLVTVSS VL: QAVVTQEPSLTVSPGGTVTLTCASSTGAVTSGYYPNWFQQKPGQAPRPLIYSTSNKHSWTPARFSGSLLGGKAALTLSGVQPDDEAEYYCLLYYGGDWVFGGGTKLTVL | – | – | – | – | – | – | – | – | EC50 (read off the curve) [1]: ~0.02 nM; IC50 (read off the curve) [3]: ~5 nM
B1 | – | – | – | – | – | – | – | – | binding result [19]: binds
